Source: PMC7593272

Molecular target: T1, response regulator Awo_c25920 (Reg) (Acetobacterium woodii) (UniProt H6LEQ6)
T1 sequence: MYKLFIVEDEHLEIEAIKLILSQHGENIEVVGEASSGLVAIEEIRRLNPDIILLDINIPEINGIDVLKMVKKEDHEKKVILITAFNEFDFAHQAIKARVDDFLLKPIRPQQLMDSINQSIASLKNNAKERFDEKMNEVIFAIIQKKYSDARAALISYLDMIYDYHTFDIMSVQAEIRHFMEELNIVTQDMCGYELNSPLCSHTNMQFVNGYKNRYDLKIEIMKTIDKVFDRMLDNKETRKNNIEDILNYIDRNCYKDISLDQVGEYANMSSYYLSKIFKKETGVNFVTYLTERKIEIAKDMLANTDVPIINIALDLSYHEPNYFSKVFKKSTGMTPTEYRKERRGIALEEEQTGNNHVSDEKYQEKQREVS
Experiment: EMSA
Conditions: EMSA in 12 ul buffer B: 50 mM Tris-HCl, 125 mM NaCl, 10 mM glycerol, 5 mM MgCl2, pH 7.8, 6% native PAGE in 1X TAE at 4 C, ethidium bromide stain

## CATAAAACTAAAAAAATAGTCAAAAAAGCAGAACAGGAAAACCTTAGGGTTAACCTGTTCTTTTTATACGTTAGAATTAGAAATGTGATTTTAAAGTACAGGTATTAGACAAAATATTACACTATGTTTTTATGGATAGAGACAAAAAACAGCGTTAGTAAAAGGTTTTCAAGGTGGTTTTAAGAAACAAACAATAATTTTATAAGAATAGCACAAGTAATTACCATAGCCTTTGAATTAAAATATAGTTAGTTCAGTAATAAAATCTTGTAATTAAGGAGGATAGAGCTT (double strand) [291 bp intergenic region upstream of pduA]
  binding: binds
